Where no end group is shown, it is not given here. [ ]: non-standard residue; d: D form. Lys(Me3) = C[N+](C)(C)CCCC[C@H](N)C(=O)O; PEG = not defined here
T1: MBP-tagged cysteine-rich domain (566 aa-657 aa) of Tpb2p, MBP-Tpb2p-CRD (WT) (Tetrahymena thermophila, UniProt D2Z1K6 566-657)
T1 construct: Tpb2p (Tetrahymena piggyBac-like transposase 2), cysteine-rich domain, aa 566-657; amplified from a codon-optimized TPB2 coding region in pMAL-TPB2; Cloned in pMalC2X, which is expected to put MBP at the N-terminus (surmise); also called cysteine-rich domain of Tpb2p; source: E. coli BL21(DE3), purified (Amylose resin, maltose elution, dialysis)
T1 sequence (looked up): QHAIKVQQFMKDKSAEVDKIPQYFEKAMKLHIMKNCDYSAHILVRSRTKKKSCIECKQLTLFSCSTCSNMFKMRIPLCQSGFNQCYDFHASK


Target: T1, MBP-tagged cysteine-rich domain (566 …)
Test: pull-down; biotin-tagged histone peptides (1 ug) immobilised on streptavidin Dynabeads, 1 ug MBP-Tpb2p-CRD added, overnight at 4°C; 10 mM Tris pH 7.5, 0.1 mM ZnSO4, 0.05% NP40, 250 mM NaCl; western blot with anti-MBP
Settings: both partners purified

Row | Binder | binding result
1 | ARTKQTARKSTGAKAPRKQ-{PEG-biotin} (peptide, UniProt P69150 2-20, looked up, reading uncertain, histone H3, Tetrahymena, amino acids 1-19; also called unmodified peptide (1-19); source: synthetic peptide) [Tetrahymena histone H3 peptide, amino acids 1-19, unmodified, C-terminally biotinylated] | binds
2 | ARTKQTARKSTGAKAPRKQ (peptide, UniProt P69150 2-20, looked up, tri-methylated lysine 9; biotin at the C-terminus with a PEG linker, histone H3, Tetrahymena, amino acids 1-19; also called H3K9me3 peptide; source: synthetic peptide) | binds
3 | PRKQLASKAARKSAPATGGI-{PEG-biotin} (peptide, UniProt P69150 17-36, looked up, reading uncertain, histone H3, Tetrahymena, amino acids 16-35; also called unmodified peptide (16-35); source: synthetic peptide) [Tetrahymena histone H3 peptide, amino acids 16-35, unmodified, C-terminally biotinylated] | binds

The remaining lines, values ahead:

Row | binding result | Binder
4 | binds | ART[Lys(Me3)]QTARKSTGAKAPRKQ-{PEG-biotin} (peptide, UniProt P69150 2-20, looked up, reading uncertain, histone H3, Tetrahymena, amino acids 1-19; That the K4me3 peptide is the 1-19 peptide follows from the position of the residue; also called H3K4me3 peptide; source: synthetic peptide)
5 | binds | PRKQLASKAAR[Lys(Me3)]SAPATGGI-{PEG-biotin} (peptide, UniProt P69150 17-36, looked up, reading uncertain, histone H3, Tetrahymena, amino acids 16-35; also called H3K27me3 peptide; source: synthetic peptide)

— publication PMC3861120, “A Domesticated PiggyBac Transposase Interacts with Heterochromatin and Catalyzes Reproducible DNA Elimination in Tetrahymena” (PLoS Genetics, 2013)
